Here are results for one molecule from PMC5856381 (2018).

Assay [1] addresses T1, hemoglobin (Hb), human, cell-free (human, UniProt P69905 1-142; P68871 1-147). The assay can be described thus: SPR. For orientation: Surface plasmon resonance follows binding to a sensor surface in real time, without labels.
The target in assay [2] is T1, hemoglobin (Hb), human, cell-free. The assay can be described thus: SPR. The source holds these as a separate data set.

By koff is commonly meant the rate constant with which the complex falls apart. For orientation: Kd means the constant that tells how readily two partners part at equilibrium.

T1 sequence (P69905 whole entry, chain 1 of 2): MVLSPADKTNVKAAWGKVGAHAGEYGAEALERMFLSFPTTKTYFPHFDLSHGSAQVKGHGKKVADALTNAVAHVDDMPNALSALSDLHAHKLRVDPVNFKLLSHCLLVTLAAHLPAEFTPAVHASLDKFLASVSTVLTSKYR
T1 sequence (P68871 whole entry, chain 2 of 2): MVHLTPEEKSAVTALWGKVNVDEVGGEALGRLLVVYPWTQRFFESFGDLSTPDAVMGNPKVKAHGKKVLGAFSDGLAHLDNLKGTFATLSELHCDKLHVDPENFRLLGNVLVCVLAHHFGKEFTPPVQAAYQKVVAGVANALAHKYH

B1: recombinant haptoglobin Hp1F, C1r-LP processed (natural protein)
chain 1: VDSGNDVTDIADDGCPKPPEIAHGYVEHSVRYQCKNYYKLRTEGDGVYTLNDKKQWINKAVGDKLPECEAVCGKPKNPANPVQ
chain 2: ILGGHLDAKGSFPWQAKMVSHHNLTTGATLINEQWLLTTAKNLFLNHSENATAKDIAPTLTLYVGKKQLVEIEKVVLHPNYSQVDIGLIKLKQKVSVNERVMPICLPSKDYAEVGRVGYVSGWGRNANFKFTDHLKYVMLPVADQDQCIRHYEGSTVPEKKTPKSPVGVQPILNEHTFCAGMSKYQEDTCYGDAGSAFAVHDLEEDTWYATGILSFDKSCAVAEYGVYVKVTSIQDWVQKTIAEN
modifications: Hp1F built from the first (F) repeat of Hp2FS (mature Asp52/Lys53 = precursor D70/K71); C1r-LP cleaves after R161 (Arg omitted from alpha chain per UniProt convention); alpha-beta and inter-alpha disulfides; N-glycosylated; C-terminal 8xHis tag omitted
B1 gave a koff in assay [1] of less than 5e-05 s⁻¹. Further, in assay [2], the equilibrium dissociation constant (Kd) is less than 0.042 nM.
